# In patent publication US20220000984A1 (JIANGSU GENSCIENCES, published 2022):
# B1: GLP1-L1-Fc2-L2-ST crosslinked with 20 kDa PEG (Fc fusion)
# chain: HGEGTFTSDVSSYLEEQAAKEFIAWLVKGGGGGGGSGGGGSGGGGSAVECPPCPAPPVAGPSVFLFPPKPKDTLMISRTPEVTCVVVDVSHEDPEVQFNWYVDGVEVHNAKTKPREEQFNSTFRVVSVLTVVHQDWLNGKEYKCKVSNKGLPAPIEKTISKTKGQPREPQVYTLPPSREEMTKNQVSLTCLVKGFYPSDIAVEWESNGQPENNYKTTPPMLDSDGSFFLYSKLTVDKSRWQQGNVFSCSVMHEALHNHYTQKSLSLSPGGSGGGSGGGGSGGGGSLPETGGGAA
# modifications: 20 kDa PEG on the added C-terminal GGGAA (GGGAA-PEG joined by sortase A to the T of LPET)
# B2: GLP1-L1-Fc2-L2-ST crosslinked with 40 kDa PEG (Fc fusion)
# chain: B1 chain
# modifications: 40 kDa PEG on the added C-terminal GGGAA (GGGAA-PEG joined by sortase A to the T of LPET)
# B3: GLP1-L1-Fc2-L2-ST (Fc fusion)
# chain: HGEGTFTSDVSSYLEEQAAKEFIAWLVKGGGGGGGSGGGGSGGGGSAVECPPCPAPPVAGPSVFLFPPKPKDTLMISRTPEVTCVVVDVSHEDPEVQFNWYVDGVEVHNAKTKPREEQFNSTFRVVSVLTVVHQDWLNGKEYKCKVSNKGLPAPIEKTISKTKGQPREPQVYTLPPSREEMTKNQVSLTCLVKGFYPSDIAVEWESNGQPENNYKTTPPMLDSDGSFFLYSKLTVDKSRWQQGNVFSCSVMHEALHNHYTQKSLSLSPGGSGGGSGGGGSGGGGSLPETG
# Molecular target: GLP-1 receptor (GLP-1R) on HEK293/CRE-Luc/GLP1R cells (UniProt P43220 24-463, limits assumed)
# Test: cell-based or functional assay
row,Binder,"relative activity compared with dulaglutide (CRE-luciferase reporter, HEK293/CRE-Luc/GLP1R cells)"
1,B1,40.4%
2,B2,32.9%
3,B3,98.1%
